Among the data in paper PMC4138556 are IC50 values, retold here.

Broadly, the IC50 is the concentration at which inhibition is half-maximal. Read a high IC50 as weaker potency.

The test has as its target D/D domain of human regulatory RIIα subunits of PKA (human). In words: AlphaScreen or HTRF. For orientation: Bead proximity is the source of the signal in Alpha formats.

D/D domain of human regulatory RIIα subunits of PKA (human), sequence (P13861 2-44): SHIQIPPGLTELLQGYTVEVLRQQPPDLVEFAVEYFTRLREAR

With peptide AKAP18δ-L314E, the IC50 was 12.7 nM.
